B1: Protease K: protease used to treat the culture filtrate (protein, UniProt P06873 106-384, looked up)
Proteinase K: AAQTNAPWGLARISSTSPGTSTYYYDESAGQGSCVYVIDTGIEASHPEFEGRAQMVKTYYYSSRDGNGHGTHCAGTVGSRTYGVAKKTQLFGVKVLDDNGSGQYSTIIAGMDFVASDKNNRNCPKGVVASLSLGGGYSSSVNSAAARLQSSGVMVAVAAGNNNADARNYSPASEPSVCTVGASDRYDRRSSFSNYGSVLDIFGPGTSILSTWIGGSTRSISGTSMATPHVAGLAAYLMTLGKTTAASACRYIADTANKGDLSNIPFGTVNLLAYNNYQA
B2: Fumonisin esterase (protein)
chain: APTVKIDAGMVVGTTTTVPGTTATVSEFLGVPFAASPTRFAPPTRPVPWSTPLQATAYGPACPQQFNYPEELREITMAWFNTPPPSAGESEDCLNLNIYVPGTENTNKAVMVWIYGGALEYGWNSFHLYDGASFAANQDVIVVTINYRTNILGFPAAPQLPITQRNLGFLDQRFALDWVQRNIAAFGGDPRKVTIFGQSAGGRSVDVLLTSMPHNPPFRAAIMESGVANYNFPKGDLSEPWNTTVQALNCTTSIDILSCMRRVDLATLMNTIEQLGLGFEYTLDNVTVVYRSETARTTGDIARVPVLVGTVANDGLLFVLGENDTQAYLEEAIPNQPDLYQTLLGAYPIGSPGIGSPQDQIAAIETEVRFQCPSAIVAQDSRNRGIPSWRYYYNATFENLELFPGSEVYHSSEVGMVFGTYPVASATALEAQTSKYMQGAWAAFAKNPMNGPGWKQVPNVAALGSPGKAIQVDVSPATIDQRCALYTHYYTELGTIAPRTF

Columns and labels:
[1] = tested on: FB1 Hydrolase activity; assay: Effect of various treatments on modification of FB1 by E. spinifera esterase (culture filtrates); format: biochemical, Exophiala spinifera; parameters: key: − = no hydrolysis; ± = trace amount of hydrolysis; + = incomplete hydrolysis; ++ = incomplete hydrolysis; +++ = complete hydrolysis; conditions: treatment 0.01 mg/ml, 16 hr, 37° C., pH 5.2; then incubated with FB1 overnight at 37° C.
Protocol: (§1) Analytical thin-layer chromatography was carried out on 100% silanized C18 silica plates (Sigma #T-7020; 10×10 cm; 0.1 mm thick) by a modification of the published method of Rottinghaus (Rottinghaus, G. E., Coatney, C. E., and Minor, H. C., A rapid, sensitive thin layer chromatography procedure for the detection of fumonisin b-1 and b-2, J Vet Diagn Invest, 4, 326 (1992), and herein incorporated by reference).
(§2) Sample lanes were pre-wet with methanol to facilitate sample application. After application of from 0.1 to 2 μl of aqueous sample, the plates were air-dried and developed in MeOH:4% KCl (3:2) or MeOH:0.2 M KOH (3:2) and then sprayed successively with 0.1 M sodium borate (pH 9.5) and fluorescamine (0.4 mg/ml in acetonitrile). Plates were air-dried and viewed under long wave UV.
The esterase isolated from E. spinifera was then subjected to other treatments, including proteases, to determine whether and how the enzyme would function in various environments.

[2] = Hydrolysis of fumonisin B1 by commercial esterases and hydrolases; format: biochemical; parameters: key: − = no hydrolysis; ± = trace amount of hydrolysis; + = incomplete hydrolysis; ++ = incomplete hydrolysis; +++ = complete hydrolysis; conditions: assay pH 5.2; overnight at 37° C. with 1 mg/ml fumonisin
Protocol: as §1, §2
The fumonisin esterase isolated from E. spinifera and R. atrovirens was compared with other known esterases from various sources as supplied by commercial vendors.

| Molecule | FB1 Hydrolase activity [1] | FB1 hydrolysis [2] |
| --- | --- | --- |
| B1 | + | – |
| B2 | – | +++ |

Reference: patent US6670189B2, “Fumonisin detoxification compositions and methods” (priority 1994, dated 2003)
